Starred links: 1 amine or outer side, 2 acyl side, 3 side chain; linkers in the order of their positions; H or OH if unused. Positions of bridges follow the written chain, without caps; N, C: chain ends. Non-standard residues stand in square brackets, D forms with d. Groups on a side chain read outwards from the residue. No end group written: not given here. Hhc = homohomocysteine, O=C([C@H](CCCS[*:3])N[*:1])[*:2]; εLys = N[C@@H](CCCCN[*:1])C(=O)[*:2]; Asu = N[C@@H](CCCCCC(=O)O)C(=O)O; hCys = N[C@@H](CCS)C(=O)O
T1: CT receptor of human breast tumor cell lines T-47D and MCF-7 (human, UniProt P30988 25-474)
T1 construct: whole, on cells; Native receptor; also called calcitonin receptor
T1 sequence (looked up): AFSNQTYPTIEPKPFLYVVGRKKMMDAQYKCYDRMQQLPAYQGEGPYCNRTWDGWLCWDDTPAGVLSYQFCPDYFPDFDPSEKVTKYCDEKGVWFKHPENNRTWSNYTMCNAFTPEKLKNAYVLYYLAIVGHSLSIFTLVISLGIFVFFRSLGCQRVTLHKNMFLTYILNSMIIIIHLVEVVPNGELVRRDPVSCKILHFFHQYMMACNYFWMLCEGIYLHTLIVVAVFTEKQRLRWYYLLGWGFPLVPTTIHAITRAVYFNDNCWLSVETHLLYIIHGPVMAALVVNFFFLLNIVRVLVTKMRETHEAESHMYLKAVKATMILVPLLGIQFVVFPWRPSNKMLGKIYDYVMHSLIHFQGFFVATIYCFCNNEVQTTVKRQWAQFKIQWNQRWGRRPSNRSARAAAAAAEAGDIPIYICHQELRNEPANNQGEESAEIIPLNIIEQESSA


Tests used:
[1] = target: T1, CT receptor of human breast tumor cell …; assay: displacement of 125I-salmon CT, whole T-47D cells
Source text: (§1) Assays using microsomal membrane fractions of rat brain and T47D cells (obtained from the American Type Culture Collection, Rockville, Md., ATCC Accession No. HTB-133) were used to identify analogs with high affinity for the CT receptor according to the method of Fisher et al. (1977, *British J. Cancer* 35: 777–784). Briefly, tissue was minced and homogenized. The membranes were washed several times, assayed for protein content and used in the binding assay. […] Both uncomplexed and ReO complexed reagents were tested.
(§2) Similar experiments were performed with additional peptide reagents within the scope of the invention, using whole cells. Binding was determined as described above.

[2] = target: T1, CT receptor of human breast tumor cell …; assay: displacement of 125I-salmon CT, whole MCF-7 cells
Source text: as §1, §2

[3] = target: T1, CT receptor of human breast tumor cell …; assay: displacement of 125I-salmon CT, T-47D cell membranes
Source text: as §1, §2

Binder | IC50 [1] [nM] | IC50 [2] [nM] | IC50 [3] [nM]
{CH2CO}-SNLSTCVLGKLSC([CH2CO-Gly-Gly-Cys-Lys-NH2])ELHKLQTYPRTNTGSGTP-NH2 (thioether N-6; also: ReO complex, Oxorhenium complex; also called Peptide 12 ReO complex) [CH2CO.SNLST.Cys.VLGKLSC(CH2CO.GGCK.amide)ELHKLQTYPRTNTGSGTP.amide•ReO] | 1 | 5.2 | 
SNLST[Asu]VLGKLSC([CH2CO-βDap-Lys-Cys-Lys-NH2])ELHKLQTYPRTNTGSGTP-NH2 (lactam N-6; also: ReO complex of chelator on Cys13, Oxorhenium complex; also called Peptide 16 ReO complex) [SNLST.Asu.VLGKLSC(CH2CO.(β-Dap)KCK.amide)ELHKLQTYPRTNTGSGTP.amide•ReO] | 2.7 | 8 | 
{CH2CO}-SNLSTCVLGKLSC([CH2CO-εLys-Gly-Cys-Glu-NH2])ELHKLQTYPRTNTGSGTP-NH2 (thioether N-6; also: ReO complex, Oxorhenium complex; also called Peptide 14 ReO complex) [CH2CO.SNLST.Cys.VLGKLSC(CH2CO.(ε-K)GCE.amide)ELHKLQTYPRTNTGSGTP.amide•ReO] | 2.6 | 1.9 | 
CSNLSTCVLGKLSQELHKLQTYPRTNTGSGTP-NH2 (ligand, disulfide 1-7, Unlabeled salmon calcitonin, bought (Sigma); also called salmon CT; sCT) [CSNLSTCVLGKLSQELHKLQTYPRTNTGSGTP-NH2 (salmon calcitonin)] |  | 12.3 | 
{CH2CO}-SNLST[Hhc]VLGKLSCELHKLQTYPRTNTGSGTP-NH2 (thioether N-6, also called Peptide 3) [CH2CO.SNLST.Hhc.VLGKLSCELHKLQTYPRTNTGSGTP.amide] |  |  | 1.6
{CH2CO}-SNLST[Hhc]VLGKLSC([CH2CO-Gly-Gly-Cys-Lys-NH2])ELHKLQTYPRTNTGSGTP-NH2 (thioether N-6, also called Peptide 4) [CH2CO.SNLST.Hhc.VLGKLSC(CH2CO.GGCK.amide)ELHKLQTYPRTNTGSGTP.amide] |  |  | 2.6
{CH2CO}-SNLSTCVLGKLSC([CH2CO-βDap-Lys-Cys-Lys-NH2])ELHKLQTYPRTNTGSGTP-NH2 (thioether N-6; also: ReO complex, Oxorhenium complex; also called Peptide 13 ReO complex) [CH2CO.SNLST.Cys.VLGKLSC(CH2CO.(β-Dap)KCK.amide)ELHKLQTYPRTNTGSGTP.amide•ReO] | 2.9 |  | 

Continued by falling IC50 [1], values first:

IC50 [1] [nM] | IC50 [2] [nM] | IC50 [3] [nM] | Binder
0.89 |  |  | {CH2CO}-SNLST[hCys]VLGKLSC([CH2CO-εLys-Gly-Cys-Glu-NH2])ELHKLQTYPRTNTGSGTP-NH2 (thioether N-6; also: ReO complex of chelator on Cys13, Oxorhenium complex; also called Peptide 10 ReO complex) [CH2CO.SNLST.Hcy.VLGKLSC(CH2CO.(ε-K)GCE.amide)ELHKLQTYPRTNTGSGTP.amide•ReO]
0.84 |  |  | {CH2CO}-SNLST[hCys]VLGKLSC([CH2CO-βDap-Lys-Cys-Lys-NH2])ELHKLQTYPRTNTGSGTP-NH2 (thioether N-6; also: ReO complex of chelator on Cys13, Oxorhenium complex; also called Peptide 9 ReO complex) [CH2CO.SNLST.Hcy.VLGKLSC(CH2CO.(β-Dap)KCK.amide)ELHKLQTYPRTNTGSGTP.amide•ReO]
0.83 | 4.8 |  | {CH2CO}-SNLST[hCys]VLGKLSC([CH2CO-Gly-Gly-Cys-Lys-NH2])ELHKLQTYPRTNTGSGTP-NH2 (thioether N-6; also: ReO complex of chelator on Cys13, Oxorhenium complex; also called Peptide 8 ReO complex) [CH2CO.SNLST.Hcy.VLGKLSC(CH2CO.GGCK.amide)ELHKLQTYPRTNTGSGTP.amide•ReO]
0.55 | 7 |  | SNLST[Asu]VLGKLSC([CH2CO-βDap-Lys-Cys-Lys-NH2])ELHKLQTYPRTDVGAGTP-NH2 (lactam N-6; also: ReO complex of chelator on Cys13, Oxorhenium complex; also called Peptide 18 ReO complex) [SNLST.Asu.VLGKLSC(CH2CO.(β-Dap)KCK.amide)ELHKLQTYPRTDVGAGTP.amide•ReO]
0.42 | 5.8 |  | {CH2CO}-SNLST[Hhc]VLGKLSC([CH2CO-βDap-Lys-Cys-Lys-NH2])ELHKLQTYPRTNTGSGTP-NH2 (thioether N-6, also called Peptide 5) [CH2CO.SNLST.Hhc.VLGKLSC(CH2CO.(β-Dap)KCK.amide)ELHKLQTYPRTNTGSGTP.amide]
0.33 | 3.3 |  | {CH2CO}-SNLST[Hhc]VLGKLSC([CH2CO-εLys-Gly-Cys-Glu-NH2])ELHKLQTYPRTNTGSGTP-NH2 (thioether N-6; also: ReO complex of chelator on Cys13, Oxorhenium complex; also called Peptide 6 ReO complex) [CH2CO.SNLST.Hhc.VLGKLSC(CH2CO.(ε-K)GCE.amide)ELHKLQTYPRTNTGSGTP.amide•ReO]
